Our source for the protein production values is a protein production outcome set (Wang et al. 2014).

The data set is described as follows: label from the status in PepcDB records.
“MINARGETMARFTVVIPYYQKQHGVLGRALASVFAQTYQDFDLVIVDDESPYPIDQELAEISQEQKDRIVVIKQANAGPGGARNTGLDHVPDGTDYVAFLDSDDMWTPDHLRNAAFALNTYGGECYWASMQASDEFYYHFAISELEKNEGAARLSEKPLVIELPDLASVMLRNWSFLHLSCMVIGRPLFEKIRFDPALRLAAEDVLFFCDSILASKRTLLCDDAGAMRGMGVNIFHSIDNTSPEFLRQQFNTWVALDTLEGRFSRRPADVASIASYKNTARKQALWSQAGNLKRRRAPQFGLLFKWAMRDPALLRAAFELGAGKIVRSRLEHHHHHH”: the protein production entry is given as “failed”. The value for “MINEQRLLNTFLELVQIDSETGNESTIQPILKEKFIALGLDVKEDEAAKHPKLGANNLVCTMNSTIEEGEVPKLYLTSHMDTVVPAINVKPIVKDDGYIYSDGTTILGADDKAGLAAMLEVLQVIKEQQIPHGQIQFVITVGEESGLIGAKELNSELLDADFGYAIDASADVGTTVVGAPTQMLISAKIIGKTAHASTPKEGVSAINIAAKAISRMKLGQVDEITTANIGKFHGGSATNIVADEVILEAEARSHDPERIKTQVKHMTDVFETTASELGGKAEVTVEQSYPGFKINDNEAVVKIAQESARNLGLSANTIISGGGSDGSIINTFGIPSVILGVGYEKIHTTNERMPIKSLNLLASQVLEIIKIVARQSK” was “not failed”; that for “MINLVEFNLFLDLLGSALLLSLPWLLLGIIISSTFLIWTDEQKWVANFPRNRLLSSLVGSALGFLLPLGAFGSVPLVRRLLLQGAPIPLAVSFLVAAPTLNIFAIVRVLSSRQSQYGLIFLCISCSWLMAIVMGLVFSTYRLARQQAEDEGETALLNIPLLRSGALIILQSSMEASPRQGGLVFASGVNPVADFSWRQKLHLFGRNIIEEFQEFGGVLVIGTAIACGIVFFLPQAWLLQWAGLGPVRQTVLMMGWSFILPLGNFSNPDLLAPLGEQLWRGSMVAFLLWGSLFNLQTIGLWLVTLRLRPLSYLVVLVGLSVFLFAMVTNYYLS” was “failed”.

On to “MINMKPQYYLGMMSGTSLDGVDIVLVDFSQDPQLILSDFFPMPEDLREKLTTLIQVGETTLQNLGELDHKLALLYSDCVNAFLQKNTFLPNQIQAIGCHGQTVWHSPNSQFPFTMQLGDMNLLAAKTGISVIGDFRRKDMAWGGQGAPLVPAFHEAVFSNSNFATAVLNIGGISNVSILFPNQAVIGFDTGPGNTLLDQWIEKHQGLRYDENGEWAAKGNVNKVLLDELLNEPFFSLPAPKSTGRELFNLVWLNHKIAKIREKLTALSVEMSFRPEDVQATLVELTVTSIVNALNQLQTDLPKRLLVCGGGAKNSLIMRGLHDNLLDWQVSTTTEQGFDIDYVEAAAFAWLAYCRINNLPANLPSVTGAKSAVSLGAIFPKD”, for which the protein production entry was “failed”.

Turning to “MINQNATYMEESAQSAVDNFGLGFNLGNTLDANGCGTGKPVATYETFWGQPETTQDMMTFLMQNGFNAVRIPVTWYEHMDAEGNVDEAWMMRVKAIVEYAMNAGLYAIVNVHHDTAAGSGAWIKADTDVYAATKEKFKKLWTQIANALADYDQHLLFEGYNEMLDGNNSWDEPQKASGYEALNNYAQDFVDAVRATGGNNATRNLIVNTYAAAKGENVLNNFMLPTDAVNNHLIVQVHSYDPWNFFNTKTTWDSECHNTLTEIFSALSKKFTTIPYIIGEYGTHGESDISVSKSSPAEKIKLAADQAADMVKLAKDHHSATFYWMSIFDGSDRIQPQWSLPTVVEAMQEAYNN”, the protein production entry is “not failed”. Consider “MIPDLVPVSLTPVTVVPNTVNTMTATIENQGNKDSTSFNVSLLVDGIVVDTQTVTSLESENSTNVDFHWTLDGTANSYTLTVNVDPENAVNEGNESNNTLTALVGTLEHHHHHH”, for which the protein production entry is “not failed”.

As for “MIPEHLSIYTAYNANIDAIVKLNQETIQNLINAFDPDEVKRRIEEYPREINEPIDFVARLVHTLKLGKPAAVPLVNEKMNEWFDKTFRYEEERLGGQAGIIANTLAGLKIRKVIAYTPFLPKRLAELFKKGVLYPVVENGELQFKPIQEAYREGDPLKINRIFEFRKGLKFKLGDETIEIPNSGRFIVSARFESISRIETREDIKPFLGEIGKEVDGAIFSGYQGLRTKYSDGKDANYYLRRAKEDIIEFKEKDVKIHVEFASVQDRKLRKKIITNILPFVDSVGIDEAEIAQILSVLGYRELADRIFTYNRLEDSILGGMIILDELNFEILQVHTTYYLMYITHRDNPLSEEELAKSLEFGTTLAAARASLGDIRGPDDYKVGLKVPFNERSEYVKLRFEEAKSRLRMREYKVVVIPTRLVQNPVLTVGLGDTISAGAFLTYLEFLKRH”, the protein production result was “not failed”.

In the case of “MIPLHRLCRALALLMGFGPTLSALAASAPEGLPLLGTGEGLEVRGCETLVLRGGQVVRLAEIIGPEAEGAARAQAALGALVVGHSLRLYGESPLADRYGRLHAHGVTEEGRWVQGALVEAGLARVVIREGESALSGALLALEERARRAGRGLWPPASAASPPPGALAATGDGFQVVEGRIVSAARAGRRIYLNFGADWRSDFTVSLSEAMLARLLATGRDPLAWAGRRVRVRGWVTRRNGPLLDLPHPMALEGPLDGPPFLSPKENLDLEYPGN”, the protein production result was “failed”. Under “MIQALLQRYEKKIERRKLEKRTAFGAFAGRIGLVSNLFLFVSKFMIGLLSGSVSIMADAINSLSDTISSVLTLVGFYIAGKPADKEHPYGHERFEYISGMLVSLVITFIGFEFLTTSVDRILHPESIKVTPILFAVLALSIGIKIWQGLFYKKVSAKIDSQALVASAKDSFNDVYTTLAVLISAFIEGVTGLRIDGYIGFLIAAYIIYSGLQLIREFINELMGMRPSQTEIDEMKNVLSKMETIVGYHDLLIHNYGPSQTFASVHIEIDDRWDLNKAHQTIDAIEAKFKEELDVNLVCHIDPVNLYDPTQQFVHQTIKKIIRSFDASLKVHDIRLVTHGEEPKILFDLVLPTESKLSEFELGVEIQRQVYEKIGRYKVEITFDHTYLLQ” stands “failed”. The value for “MIQCILVMLGGGIGAVIRGFVTDVFNQKFNTSLPIPTLLINVVGSFCIGLLMGMCLNINWINPFIIVGILGGLTTFSTLSSELVKLLTTPKQINLFILYSILQYGVSFVACLLGYYLF” was “failed”. In the case of “MIQLKNVGITLSGKGYERFSLENINLEVNGEKVIILGPNGSGKTTLLRAISGLLPYSGNIFINGMEVRKIRNYIRYSTNLPEAYEIGVTVNDIVYLYEELKGLDRDLFLEMLKALKLGEEILRRKLYKLSAGQSVLVRTSLALASQPEIVGLDEPFENVDAARRHVISRYIKEYGKEGILVTHELDMLNLYKEYKAYFLVGNRLQGPISVSELLESSIVEGERNDALLVLDIMDKKVSIVKGDLGMKFGALGSLNRIYGIIGA”, the protein production result is given as “not failed”. “MIQQLLVTFPPMLFGAQALLTLLLIKGDICPGQRGRLHKMLPAIGVLWLAVASLRIEAFMVVFAIFYFYSQVQTKKTREKGPLWALHLANGLAFAYVSIQVFEQPNWPASAAMAVMIFFLGASFSQLLLTIARSRLQAFHRILPVTGIVSGMLLVLATLFSSYQLDEATLASATQPILISLALLISTIVVWCWHIFTHKAPEKVQLSIALLLALASMTSLQGLFALAV”: the protein production entry is on record as “failed”. For “MIRAVFFDFVGTLLSVEGEAKTHLKIMEEVLGDYPLNPKTLLDEYEKLTREAFSNYAGKPYRPIRDIEEEVMRKLAEKYGFKYPENFWEIHLRMHQRYGELYPEVVEVLKSLKGKYHVGMITDSDTEYLMAHLDALGIKDLFDSITTSEEAGFFKPHPRIFELALKKAGVKGEEAVYVGDNPVKDCGGSKNLGMTSILLDRKGEKREFWDKCDFIVSDLREVIKIVDELNGQ”, the protein production entry is reported as “not failed”. The value for “MIRFQPITTSDVQHYKFMEELLVESFPPEEYRELEHLREYTDRIGNFHNNIIFDDDLPIGFITYWDFDEFYYVEHFATNPALRNGGYGKRTLEHLCEFLKRPIVLEVERPVEEMAKRRINFYQRHGFTLWEKDYYQPPYKEGDDFLPMYLMVHG” was “failed”; that for “MIRIDSVTKRYPDGTVAVDRLSLEIPDRSITVLVGPSGCGKTTTLRMINRMVEPSEGTILLDGADITKQPVNTLRRSMGYVIQNAGLFQHRTIVDNIATVPRMLGWGKERARSRARELMERVGLDASLARRYPYQLSGGQQQRVGVARALASDPPVLLMDEPFSAVDPVVRKGLQEELLRIQDELGKTIVFVTHDIDEAIRLGTMVAVMRTGGHLAQFAPPAELLSAPADAFVEDFLGTDRGIRRLSFFPSAGLELLTTPVVAIDSTAEQIAARGTPDVPYLLVTDVDGKALGWSEPKDLTAGKVVPERLLPYGRPFESGKDSLRAALDCAVLSPTGWAVAVDGTGRVVGVVSQETIGEAIRGAHAERRKADLAGLEHHHHHH” was “not failed”. Regarding “MIRISIALLDHQEQLPNMFENLSEDLRKALNEAGYIKPTRVQEVVIPELMNGKSVIVQAKTGSGKTAAYVIPILERNSTALILSPTRELATQILDEIKKLGKYKQIDVSLIIGGMSYDDQRQSKIVVGTPGRLLDLWSKGKIDFSGYDFVIVDEADRMLDMGFIDDIRMILNHCNAKIAGFFSATIPDEIMTLAKEFSKDLREIVLDEYKPVEEVKQKFVKVRNDWNDKVSKLLEEINGEKILVFARTRDRARKLYYLLKGKGVNVGLLSGDMPQSVRLKNFYGFKKGKYNVLVATDLASRGIDIIDVNKVINFDIPRDVETYIHRVGRTGRMGRVGQAITFYTFREADMIKRINNLLAI”, the protein production entry is “failed”.

Take “MIRKWDTKDTAPLLALWLDSTIHAHPFISESYWRDSVAVVRDVYLPAASTWVWEQDGELKGFVSVLDSRFVGALFVAPGATRQGIGRALLDEVKQHYAWLSLEVYQKNESAVSFYHAQGFRIEDCAWQDDTQHPTWIMRWPA”: the protein production result is given as “not failed”.

For “MIRMTVKVPHPLRVVAVSGGMQRPSKSVALAEHLLALIAEQLPCERHLVEIGALAPQFAGAPWRSHLPGSVEQALALVEQADVLVVATPVYRGSFTGLFKHFFDFIDQDALVDTPVLLAATGGSDRHALMIDHQLRPLFSFFQARTLPLGVYATDRDFLDYRVHSQALAERASLAVQRALPLIELTRHARSITAQNVAAA”, the protein production entry is reported as “failed”. Turning to “MIRPEYLRVLRKIYDRLKNEKVNWVVTGSLSFALQGVPVEVHDIDIQTDEEGAYEIERIFSEFVSKKVRFSSTEKICSHFGELIIDGIKVEIMGDIRKRLEDGTWEDPVDLNKYKRFVETHGMKIPVLSLEYEYQAYLKLGRVEKAETLRKWLNERKG”, the protein production entry is given as “not failed”.

Regarding “MIRPTVQENFSRYADCIAACNAAAAACLKCAAACLEEPDTRKMTRCIALDMDCAGIANLAASYMLRNSEFAPLVCEDCAEVCKWCKEECERYDHWHCQECAKACAACMEMCLKMTA”, the protein production entry is reported as “failed”. With “MIRVLFAFIILLLSVFLGIQLNKDPGYVLIAINNWTIETTLWVSVFGLFFLFFLIYGLVQFCNKITRMPGMVNKWHSRRLAQKAQATTRKGLIEYSEGYWQKAKNHLIQALPNTDTPLLNYLTAARAAQKMGDSKLRDHYLREAQQSMPEAKIAVELTQAQLQLANHQWEQALATLKHLQDLAPRHPYVLKLLMNLYEEIKDWQQLIALLPDLKKNHIISDQAFEQLQKNTYLQAMIDLAKHNQSDGITKLYQTLPKTLVNDTAITAEYARFLIRNQDYDQAEYHLKRCLRKELDNRLIELYSLLPCEENQLLFAESLLKKNPHSAALYLCLGRMCLSRHLWGKAKHYLEQSIELNPTPVAFIELGKLHEKLNDPLSSGSCYKKGLELITKDELS”, the protein production entry is listed as “failed”.
